# Test results as given in IntAct's records for PubMed 9853758.
# B1: Phosphate system positive regulatory protein PHO4 (Saccharomyces cerevisiae), P07270 (parent)
# chain: MGRTTSEGIHGFVDDLEPKSSILDKVGDFITVNTKRHDGREDFNEQNDELNSQENHNSSENGNENENEQDSLALDDLDRAFELVEGMDMDWMMPSHAHHSPATTATIKPRLLYSPLIHTQSAVPVTISPNLVATATSTTSANKVTKNKSNSSPYLNKRRGKPGPDSATSLFELPDSVIPTPKPKPKPKQYPKVILPSNSTRRVSPVTAKTSSSAEGVVVASESPVIAPHGSSHSRSLSKRRSSGALVDDDKRESHKHAEQARRNRLAVALHELASLIPAEWKQQNVSAAPSKATTVEAACRYIRHLQQNVST
# partner: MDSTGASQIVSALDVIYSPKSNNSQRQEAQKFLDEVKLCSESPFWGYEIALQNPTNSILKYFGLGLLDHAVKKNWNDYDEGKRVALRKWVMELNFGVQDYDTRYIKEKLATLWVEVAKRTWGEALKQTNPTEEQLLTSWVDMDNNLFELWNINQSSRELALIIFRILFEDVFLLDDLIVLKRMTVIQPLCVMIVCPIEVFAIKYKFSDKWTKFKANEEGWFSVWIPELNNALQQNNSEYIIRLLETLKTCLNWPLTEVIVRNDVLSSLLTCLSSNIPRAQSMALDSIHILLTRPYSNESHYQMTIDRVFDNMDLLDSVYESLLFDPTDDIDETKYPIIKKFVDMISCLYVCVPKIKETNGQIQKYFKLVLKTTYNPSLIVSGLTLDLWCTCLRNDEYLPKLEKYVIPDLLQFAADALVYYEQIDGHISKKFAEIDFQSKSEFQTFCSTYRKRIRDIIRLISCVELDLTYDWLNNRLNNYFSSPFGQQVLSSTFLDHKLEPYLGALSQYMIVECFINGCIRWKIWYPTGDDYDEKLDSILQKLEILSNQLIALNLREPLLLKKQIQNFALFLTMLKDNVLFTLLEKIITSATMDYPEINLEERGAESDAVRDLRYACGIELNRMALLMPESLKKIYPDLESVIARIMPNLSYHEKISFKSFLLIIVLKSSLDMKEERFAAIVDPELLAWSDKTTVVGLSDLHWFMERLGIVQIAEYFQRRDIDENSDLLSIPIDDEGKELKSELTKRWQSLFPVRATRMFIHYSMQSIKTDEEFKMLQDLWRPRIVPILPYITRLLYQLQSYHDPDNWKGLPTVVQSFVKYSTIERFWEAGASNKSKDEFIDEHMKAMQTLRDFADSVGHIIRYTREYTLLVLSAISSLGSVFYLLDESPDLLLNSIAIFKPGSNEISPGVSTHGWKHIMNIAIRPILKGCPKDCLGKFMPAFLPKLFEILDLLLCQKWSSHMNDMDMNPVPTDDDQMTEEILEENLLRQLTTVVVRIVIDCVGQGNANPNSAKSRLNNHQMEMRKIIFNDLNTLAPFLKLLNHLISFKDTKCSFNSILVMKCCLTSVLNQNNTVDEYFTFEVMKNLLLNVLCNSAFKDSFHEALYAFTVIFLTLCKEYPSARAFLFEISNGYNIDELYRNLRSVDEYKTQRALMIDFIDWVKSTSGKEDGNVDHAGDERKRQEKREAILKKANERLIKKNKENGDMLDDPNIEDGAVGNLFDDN
# Variants of: B1
# Conditions: with msn5_yeast MSN5, P52918
row,Variant,effect of a mutation on the interaction
1,S100A;S114A;S128A;S152A;S223A,disrupting interaction
